# What was measured:
# GST-HSF1N101 (human) = GST-HSF1N101 (human) (UniProt Q00613); test: GST pull-down; 35S-labeled in vitro translated protein on GST-fusion glutathione-Sepharose, SDS-PAGE, autoradiography, BAS2000 quantification
# GST-HSF2N96 (human) = GST-HSF2N96 (human) (UniProt Q03933); test: as above
# Chain of GST-HSF2N96 (human) (Q03933 96-536): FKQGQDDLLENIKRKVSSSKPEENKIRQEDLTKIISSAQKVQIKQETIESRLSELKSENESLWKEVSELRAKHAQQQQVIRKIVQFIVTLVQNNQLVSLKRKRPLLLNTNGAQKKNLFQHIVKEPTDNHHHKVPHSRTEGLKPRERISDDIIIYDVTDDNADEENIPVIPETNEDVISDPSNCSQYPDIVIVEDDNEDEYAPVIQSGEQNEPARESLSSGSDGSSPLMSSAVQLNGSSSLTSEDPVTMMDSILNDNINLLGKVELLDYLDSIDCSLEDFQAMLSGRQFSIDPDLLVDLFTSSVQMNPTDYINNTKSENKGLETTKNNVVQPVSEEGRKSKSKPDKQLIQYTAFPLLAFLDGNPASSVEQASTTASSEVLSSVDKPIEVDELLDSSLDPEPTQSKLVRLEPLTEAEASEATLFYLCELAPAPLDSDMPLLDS
# Chain of GST-HSF1N101 (human) (Q00613 101-529): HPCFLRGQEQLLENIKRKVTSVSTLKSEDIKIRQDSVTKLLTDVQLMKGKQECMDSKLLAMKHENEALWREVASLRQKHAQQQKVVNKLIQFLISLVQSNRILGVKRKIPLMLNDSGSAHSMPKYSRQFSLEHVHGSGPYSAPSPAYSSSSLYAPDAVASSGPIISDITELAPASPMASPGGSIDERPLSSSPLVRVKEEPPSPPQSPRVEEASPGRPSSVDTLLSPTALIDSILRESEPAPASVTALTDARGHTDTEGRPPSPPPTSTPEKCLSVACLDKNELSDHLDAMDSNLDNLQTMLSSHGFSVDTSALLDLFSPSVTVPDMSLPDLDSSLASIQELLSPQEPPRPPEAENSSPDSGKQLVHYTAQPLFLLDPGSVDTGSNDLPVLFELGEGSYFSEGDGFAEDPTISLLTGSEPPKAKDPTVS
binder,measurement,setting,value
"HSF2 binding protein (HSF2BP), in vitro translated, 35S-methionine-labeled (protein, 35S-methionine label) MGEAGAAEEACRHMGTKEEFVKVRKKDLERLTTEVMQIRDFLPRILNGEVLESFQKLKIVEKNLERKEQELEQLKMDCEHFKARLETVQADNIREKKEKLALRQQLNEAKQQLLQQAEYCTEMGAAACTLLWGVSSSEEVVKAILGGDKALKFFSITGQTMESFVKSLDGDVQELDSDESQFVFALAGIVTNVAAIACGREFLVNSSRVLLDTILQLLGDLKPGQCTKLKVLMLMSLYNVSINLKGLKYISESPGFIPLLWWLLSDPDAEVCLHVLRLVQSVVLEPEVFSKSASEFRSSLPLQRILAMSKSRNPRLQTAAQELLEDLRTLEHNV",proportion of bound HSF2BP (% of the level of input) (% of the level of input),GST-HSF1N101 (human),8.5
same,proportion of bound HSF2BP (% of the level of input) (% of the level of input),GST-HSF2N96 (human),7.9

# — patent publication US6485936
